Data reported in the supplement of paper PMC9170038.

Tested on: MS2 coat protein
Assay: apparent KD of MS2 coat protein; designed switch direction (-1 OFF switch, 1 ON switch): -1; higher = weaker reporter binding
In short: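 Designed RNA switches with common flanks were made on Illumina chips by stalled E. coli RNA polymerase. Titration with SNAP-549-labelled MS2 coat protein doubled from 0.7 or 1.5 nM up to 3 µM. Apparent KD is each design's median over clusters after curve-fitting normalised fluorescence.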

[1] = Eterna round: R95, input ligand: FMN 200 uM
[2] = Eterna round: R95, input ligand: microRNA oligo, concentration not stated
[3] = Eterna round: R95, input ligand: none

Sequence	apparent KD of MS2 coat protein [1]	apparent KD of MS2 coat protein [2]	apparent KD of MS2 coat protein [3]	apparent KD of MS2 coat protein (input ligand: FMN 200 uM)	apparent KD of MS2 coat protein (input ligand: none)	apparent KD of MS2 coat protein (input ligand: microRNA oligo, concentration not stated)
GAUAAAGGGCAGGAUAUGGCUGGAAAAUAUCCGCCAGAAGGGCCCACAUGAGGAUCACCCAUGUGUGGUCCGCG [Lere] (puzzle: Exclusion 6)	52.3 nM	17.3 nM	19.1 nM	–	–	–
GAUAGAGAGCAGGAUAUCUUGGAUAAGUAUAGUAGAGAAGGGCUCACAUGAGGAUCACCCAUGUGGUCCUAGAU [JL Dibiri mod 11] (puzzle: Exclusion 6)	43.8 nM	14.9 nM	15 nM	–	–	–
GAUAGAGAGCAGGAUAUCUUGGAUAAGUAUUGUAGAGAAGGGCUCACAUGAGGAUCACCCAUGUGGUCCUAGAU [JL Dibiri mod 10] (puzzle: Exclusion 6)	–	14.8 nM	–	–	–	–
GAUCACUGAGGAUAUACACAGAUACAAAGUAUCUGACCGUGACAUGAGGAUCACCCAUGUAGAAGGCAGAGGUC [Omei Ex2 B1] (Eterna round: R97, puzzle: Exclusion 2)	–	–	–	384 nM	47.2 nM	–
GAUCCACAUGAGGAUCACCCAUGUGAGGAUAUGAUACUAUGUACUUCGGUACAUAGUAUCAGAAGGCACGGGUC [Ex1-3: 55] (puzzle: Exclusion 1)	–	72.5 nM	–	–	–	–
GAUCCGAUUGUCAGGAUAUUCAAAACGGCGCAAAAGAAGAAGGGACAUGAGGAUCACCCAUGUAUACGCCACCA [Usisbima] (Eterna round: R97, puzzle: Brourd's mod of Exclusion 4)	–	–	–	36.7 nM	332 nM	–
GAUCCUCGGGUUAGGAUAUCGAGGAUGUACGUCAGCGAGAAGGAACAUGAGGAUCACCCAUGUUGCUUAGCAAG [BmEX4 A.18] (Eterna round: R97, puzzle: Brourd's mod of Exclusion 4)	–	–	–	21.1 nM	19.5 nM	–
GAUCCUUCUGUUAGGAUAUGCUUUGGGCUUCCGCAGCAGAAGGAACAUGAGGAUCACCCAUGUCAAAUACCAUC [salish99_bmex4_r4_503] (Eterna round: R97, puzzle: Brourd's mod of Exclusion 4)	–	–	–	23.1 nM	23.1 nM	–
GAUGAGCAUGUCAGGAUAUCCACUCUAAUAAAACAGGAGAAGGGACAUGAGGAUCACCCAUGUUCUAGACAUGA [Latealedi] (puzzle: Brourd's mod of Exclusion 4)	14.5 nM	13.1 nM	14 nM	–	–	–
GAUGAGGUAGGAUAUACGAGAAGAUAGGGUAGAUAGAGAACACAUGAGGAUCACCCAUGUAGAAGGACCAGUAG [Mat - Exclusion 2 - Mod of my Tesla design - D73] (puzzle: Exclusion 2)	–	25.9 nM	–	–	–	–
GAUGGACAUGAGGAUCACCCAUGUAAGGAUAUUGAUUGUGGCUAUAAAUAGUUACGGUCAAGAAGGUACUCGUC [-21.6, -18.6 kcal, A 31%] (Eterna round: R97, puzzle: Exclusion 1)	–	–	–	128 nM	161 nM	–
GAUGGAGAGCAGGAUAUCUUGGGUAAGCAUCAUAGAGAAGGGCUCACAUGAGGAUCACCCAUGUGGUCCAAGAA [Usbiridi] (Eterna round: R96, puzzle: Exclusion 6)	–	–	–	57 nM	18.3 nM	15.1 nM
GAUGGAGAGCAGGAUAUCUUGGGUAAGCAUCAUAGAGAAGGGCUCACAUGAGGAUCACCCAUGUGGUCCAAGAA [Usbiridi] (puzzle: Exclusion 6)	–	14.1 nM	–	–	–	–
GAUGUGAGACAGGAUAUCCACGGGAUAGUCUGAGGAGAAGGGUCUACAUGAGGAUCACCCAUGUGCGUCCCUCA [EX6 B.8] (Eterna round: R97, puzzle: Exclusion 6)	–	–	–	22.4 nM	15.5 nM	–
GAUUAACAUGAGGAUCACCCAUGUGAGGAUAUGGAAUGGCUCAUUGUCUGAUUUCCUUCUAGAAGGCACAUCUU [1986#4c] (Eterna round: R97, puzzle: Exclusion 1)	–	–	–	72.2 nM	63.3 nM	–
GAUUACACAAGCUUUAGGGACAUGAGGAUCACCCAUGUUCGUCUUAUUGAUCUAGGUACGCUGACGUACCUAGAUCU [JL-sv1-2.31 Brourd mod] (puzzle: Sensor v3, turn-off variant 1)	14.5 nM	84.9 nM	13.2 nM	–	–	–

Sequence	apparent KD of MS2 coat protein [1]	apparent KD of MS2 coat protein [2]	apparent KD of MS2 coat protein [3]	apparent KD of MS2 coat protein (input ligand: FMN 200 uM)	apparent KD of MS2 coat protein (input ligand: none)	apparent KD of MS2 coat protein (input ligand: microRNA oligo, concentration not stated)
GAUUAGCAAGCGAGAUCCCACAUGAGGAUCACCCAUGUGCUCGUCUUAUAAAGUACUGUGACGAAAGUCACGGUACA [Mat - Sensor, turn-off var - Eli Mod - D11] (Eterna round: R97, puzzle: Sensor, turn-off variant 1)	–	–	–	17.2 nM	14.8 nM	–
GAUUAUGCGAGCUUUAGGGACAUGAGGAUCACCCAUGUUCGUCUUAUUAGUCUAAAUACACUGACAUACCUAAAUCU [JMF 54] (puzzle: Sensor v3, turn-off variant 1)	17.3 nM	15.9 nM	13.6 nM	–	–	–
GAUUAUGCGAGCUUUAGGGACAUGAGGAUCACCCAUGUUCGUCUUAUUAGUCUAAGUGCACUGACAUACCUAAAUCU [JMF 83] (puzzle: Sensor v3, turn-off variant 1)	15.8 nM	23.2 nM	16.6 nM	–	–	–
GAUUAUGCGAGCUUUAGGGACAUGAGGAUCACCCAUGUUCGUCUUAUUAGUCUGGGUACACUAACAUACCUAAAUCU [JMF 21] (puzzle: Sensor v3, turn-off variant 1)	26.9 nM	43.6 nM	30.4 nM	–	–	–
GAUUAUGCGAGCUUUAGGGACAUGAGGAUCACCCAUGUUCGUCUUAUUAGUCUGGGUGCGCUAACAUACCUAAAUCU [JMF 53] (puzzle: Sensor v3, turn-off variant 1)	90.1 nM	148 nM	175 nM	–	–	–
GAUUAUGCGAGCUUUAGGGACAUGAGGAUCACCCAUGUUCGUCUUAUUGAUCUAGAUGCACUGACAUACCUAAAUCU [JMF 77] (puzzle: Sensor v3, turn-off variant 1)	15.1 nM	18.7 nM	17.2 nM	–	–	–
GAUUAUGCGAGCUUUAGGGACAUGAGGAUCACCCAUGUUCGUCUUAUUGAUCUAGGUACACUAACAUACCUAAAUCU [JMF 17] (puzzle: Sensor v3, turn-off variant 1)	19.8 nM	38.1 nM	23.1 nM	–	–	–
GAUUAUGCGAGCUUUAGGGACAUGAGGAUCACCCAUGUUCGUCUUAUUGGUCUAGGUACACUGACAUACCUAAAUCU [JMF 68] (puzzle: Sensor v3, turn-off variant 1)	22.7 nM	37.2 nM	23 nM	–	–	–
GAUUAUGCGAGCUUUAGGGACAUGAGGAUCACCCAUGUUCGUCUUAUUGGUCUGAGUGCACUAACAUACCUAAAUCU [JMF 31] (puzzle: Sensor v3, turn-off variant 1)	23.1 nM	37.3 nM	22.8 nM	–	–	–
GAUUAUGCGAGCUUUAGGGACAUGAGGAUCACCCAUGUUCGUCUUAUUGGUCUGGGUACACUAACAUACCUAAAUCU [JMF 22] (puzzle: Sensor v3, turn-off variant 1)	33.4 nM	47.9 nM	36.2 nM	–	–	–
GAUUAUGCGAGCUUUAGGGACAUGAGGAUCACCCAUGUUCGUCUUGUUGAUCUAGGUACGCUAACAUACCUAAAUCU [JMF 6] (puzzle: Sensor v3, turn-off variant 1)	19.7 nM	28.3 nM	20.2 nM	–	–	–
GAUUAUGCGAGCUUUAGGGACAUGAGGAUCACCCAUGUUCGUCUUGUUGAUCUAGGUGCGCUAACAUACCUAAAUCU [JMF 48] (puzzle: Sensor v3, turn-off variant 1)	23.5 nM	30.5 nM	23.4 nM	–	–	–
GAUUCGGGAGGAUAUACAUGAGGAUCACCCAUGUAUAUAUAAUAUAAUAAAUUAAAAUGUAGAAGGUUUGGGUC [-13.5, -9.6 kcal, 38% A] (Eterna round: R97, puzzle: Exclusion 3)	–	–	–	22.8 nM	23.2 nM	–
GAUUCGGGAGGAUAUACAUGAGGAUCACCCAUGUGUAUAUAAUAUGUUAAGUUAUCAUGUAGAAGGUUUGGGUC [-16.5, -16.2 kcal, 30% A] (Eterna round: R97, puzzle: Exclusion 3)	–	–	–	38 nM	49 nM	–
GCAAGCUUAAUCAGUAUGAACAUGAGGAUCACCCAUGUAUAAGGUAAUACUUUUGGGCCCUUUAUUACUCGUCUUAU [JR_STOV1_Sub029] (Eterna round: R97, puzzle: Sensor, turn-off variant 1)	–	–	–	67.4 nM	72.6 nM	–
